# Assay results as given in the supplement of paper PMC10567573.
# B1: ATL3 (parent)
# chain: HFKKTKKMGGKDFSFRYQQELEEE
# B2: ZNF24 (parent)
# chain: YGETCFPKGRFERKRNPSRKKQHI
# Variants of: B1
# Assay: protein stability index of a GFP-peptide fusion (GPS, HEK-293T) (PSI 1-6); higher = more stable
# Settings: c terminus: a fixed tail appended
# 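Further: lentivirally expressed fusions sorted by FACS into six bins by GFP to DsRed ratio, PSI derived from sequencing read proportions per bin multiplied by bin number.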
row,Variant,protein stability index
1,E24V,3.28
2,E24R,3.35
3,E24Q,2.08
4,E24T,2.39
5,E24S,2.85
6,E24W,1.9
7,E24Y,1.54
8,E24N,3.49
9,E24P,3.69

# Variants of: B2
# Assay: as above
# Settings: c terminus: a fixed tail appended
row,Variant,protein stability index
1,F6M,4.07
2,F6Y,4.74
3,F6K,3.38
4,F6W,1.77
5,F6L,3.79
6,F6Q,4.02
7,F6S,3.73
8,F6P,4.35
9,F6T,4.36
10,F6N,4.03
11,F6E,4.51
12,F6V,3.82
13,F6H,4.08
14,F6A,3.64
15,F6I,3.61
16,F6D,4.46
17,F6G,3.8
18,F6R,3.7
19,F6C,3.87
20,T4R,3.37
21,T4Y,2.09
22,T4E,3.24
23,T4N,2.37

row,Variant,protein stability index
1,T4D,3.14
2,T4S,3.43
3,T4W,1.02
4,T4A,2.96
5,T4F,2.1
6,T4H,2.98
7,T4K,2.13
8,T4I,3.04
9,T4V,3.38
10,T4C,2.12
11,T4L,2.45
12,T4P,1.89
13,T4G,2.33
14,T4M,2.47
15,C5Q,3.15
16,C5L,3.05
17,C5V,3.17
18,C5M,2.25
19,C5D,2.67
20,C5A,3.17
21,C5I,3.16
22,C5E,3.15
23,C5K,4.01

row,Variant,protein stability index
1,C5H,3.63
2,C5F,3.83
3,C5T,2.47
4,C5Y,1.95
5,C5N,2.43
6,C5G,2.17
7,C5R,3.29
8,C5W,2.53
9,C5P,3.61
10,C5S,3.7
11,E3W,2.26
12,E3I,2.71
13,E3F,2.71
14,E3P,2.54
15,E3H,2.56
16,E3L,2.96
17,E3Q,3.2
18,E3T,2.62
19,E3D,2.2
20,E3K,3.11
21,E3S,2.04
22,E3N,1.95
23,E3C,2.75

row,Variant,protein stability index
1,E3R,2.9
2,E3A,2.4
3,E3G,2
4,E3V,3.66
5,E3M,3.41
6,E3Y,2.37
7,Y1I,3.74
8,Y1G,4.63
9,Y1T,3.6
10,Y1W,2.6
11,Y1M,3.99
12,Y1N,4.4
13,Y1R,3.63
14,Y1H,4.11
15,Y1S,4.4
16,Y1D,4.25
17,Y1A,4.36
18,Y1K,3.75
19,Y1Q,3.96
20,Y1L,3.9
21,Y1C,3.45
22,Y1E,4.46
23,Y1P,4.1

row,Variant,protein stability index
1,Y1F,1.9
2,Y1V,4.09
3,P7N,3.69
4,P7K,3.35
5,P7M,3.07
6,P7W,2.57
7,P7T,3.02
8,P7A,2.77
9,P7G,2.82
10,P7S,2.28
11,P7L,1.9
12,P7I,2.5
13,P7V,3.12
14,P7D,3.5
15,P7R,2.93
16,P7E,3.63
17,P7C,2.81
18,P7Q,2.26
19,P7Y,1.76
20,P7H,2.43
21,G2C,2.1
22,G2L,2.58
23,G2E,4.37

row,Variant,protein stability index
1,G2Q,3.44
2,G2T,2.33
3,G2A,2.34
4,G2Y,2.58
5,G2K,3.21
6,G2R,3.41
7,G2M,3
8,G2I,1.76
9,G2H,2.15
10,G2D,4.33
11,G2V,2.74
12,G2S,3.4
13,G2F,2.51
14,G2P,2.89
15,G2W,3.17
16,G2N,3.65
17,G9F,2.29
18,G9D,2.71
19,G9I,1.94
20,G9A,2.11
21,G9L,2.12
22,G9K,3.15
23,G9M,2.18

row,Variant,protein stability index
1,G9C,1.98
2,G9E,3.39
3,G9N,3.06
4,G9H,2.72
5,K8C,1.68
6,K8G,2.93
7,K8P,2.11
8,K8Q,2.13
9,K8H,2.1
10,K8V,2.36
11,K8D,3.56
12,K8L,2.07
13,K8I,2.49
14,K8Y,2.74
15,K8E,2.96
16,K8R,2.88
17,K8S,2.42
18,K8T,2.49
19,K8A,2.17
20,K8N,1.93
